T1: Receptor Interacting Protein Kinase-1 (RIPK1) (human, UniProt Q13546 1-671)
T1 construct: Endogenous protein in human AD and CTL brain extracts (TBS/Triton-X100) and in human cell lysates; also called RIP1
T1 sequence (looked up): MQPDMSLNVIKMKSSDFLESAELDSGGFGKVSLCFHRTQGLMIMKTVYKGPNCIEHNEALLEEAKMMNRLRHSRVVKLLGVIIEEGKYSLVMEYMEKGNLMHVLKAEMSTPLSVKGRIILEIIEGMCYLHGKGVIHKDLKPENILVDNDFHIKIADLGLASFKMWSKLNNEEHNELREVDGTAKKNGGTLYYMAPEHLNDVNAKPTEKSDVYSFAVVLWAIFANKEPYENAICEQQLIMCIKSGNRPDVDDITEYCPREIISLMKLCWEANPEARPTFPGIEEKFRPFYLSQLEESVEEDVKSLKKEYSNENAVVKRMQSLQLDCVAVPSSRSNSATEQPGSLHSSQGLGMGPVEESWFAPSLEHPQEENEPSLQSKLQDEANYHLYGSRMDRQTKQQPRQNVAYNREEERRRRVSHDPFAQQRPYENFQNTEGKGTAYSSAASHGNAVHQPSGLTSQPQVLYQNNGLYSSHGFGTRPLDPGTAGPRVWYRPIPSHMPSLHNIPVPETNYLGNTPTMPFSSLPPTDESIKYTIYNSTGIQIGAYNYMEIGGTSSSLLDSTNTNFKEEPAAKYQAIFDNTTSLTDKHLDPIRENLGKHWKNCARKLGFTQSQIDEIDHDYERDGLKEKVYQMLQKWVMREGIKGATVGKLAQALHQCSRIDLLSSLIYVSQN

B1: Receptor Interacting Protein Kinase-3 (RIPK3) (enzyme, human, UniProt Q9Y572 1-518, looked up)
chain: MSCVKLWPSGAPAPLVSIEELENQELVGKGGFGTVFRAQHRKWGYDVAVKIVNSKAISREVKAMASLDNEFVLRLEGVIEKVNWDQDPKPALVTKFMENGSLSGLLQSQCPRPWPLLCRLLKEVVLGMFYLHDQNPVLLHRDLKPSNVLLDPELHVKLADFGLSTFQGGSQSGTGSGEPGGTLGYLAPELFVNVNRKASTASDVYSFGILMWAVLAGREVELPTEPSLVYEAVCNRQNRPSLAELPQAGPETPGLEGLKELMQLCWSSEPKDRPSFQECLPKTDEVFQMVENNMNAAVSTVKDFLSQLRSSNRRFSIPESGQGGTEMDGFRRTIENQHSRNDVMVSEWLNKLNLEEPPSSVPKKCPSLTKRSRAQEEQVPQAWTAGTSSDSMAQPPQTPETSTFRNQMPSPTSTGTPSPGPRGNQGAERQGMNWSCRTPEPNPVTGRPLVNIYNCSGVQVGDNNYLTMQQTTALPTWGLAPSGKGRGLQHPPPVGSQEGPKDPEAWSRPQGWYNHSGK
notes: Endogenous protein in human brain sections
B2: Mixed Lineage Kinase Domain-Like (MLKL) (other)
chain: MENLKHIITLGQVIHKRCEEMKYCKKQCRRLGHRVLGLIKPLEMLQDQGKRSVPSEKLTTAMNRFKAALEEANGEIEKFSNRSNICRFLTASQDKILFKDVNRKLSDVWKELSLLLQVEQRMPVSPISQGASWAQEDQQDADEDRRAFQMLRRDNEKIEASLRRLEINMKEIKETLRQYLPPKCMQEIPQEQIKEIKKEQLSGSPWILLRENEVSTLYKGEYHRAPVAIKVFKKLQAGSIAIVRQTFNKEIKTMKKFESPNILRIFGICIDETVTPPQFSIVMEYCELGTLRELLDREKDLTLGKRMVLVLGAARGLYRLHHSEAPELHGKIRSSNFLVTQGYQVKLAGFELRKTQTSMSLGTTREKTDRVKSTAYLSPQELEDVFYQYDVKSEIYSFGIVLWEIATGDIPFQGCNSEKIRKLVAVKRQQEPLGEDCPSELREIIDECRAHDPSVRPSVDEILKKLSTFSK
notes: Endogenous protein in human brain extracts and HAP1 cells

Experiments:
[1] = target: T1, Receptor Interacting Protein Kinase-1 …; test: confocal co-localization in co-labeled human brain sections
Procedure: (§1) The tissue was then washed in water and let dry overnight. The next day the slides were cleared in xylene and coverslipped with DPX mounting solution (Sigma-Aldrich). The immunohistochemistry on the brain sections from APP/PS1 was conducted following a similar protocol as we previously detailed 49. In this case, sections were stained with an anti-A(342 specific antibody (1:200; Millipore, catalog number AB5078P) and with a neuronal marker NeuN (1:200, Millipore, catalog number MAB377), Iba1 (Wako), GFAP (Cell Signaling) and GFP (1:200, Thermo Fisher Scientific, catalog number A-11122).
(§2) Confocal microscopy and image analysis: All images were acquired at a resolution size of x=1024, y=1024, and z=1, using a 63× oil immersion objective and zoom of 1.5 using the Leica DM 2500 confocal microscope. Image fields within the x-y plane of the tissue section were randomly selected. For each image acquired, channels were split to allow separate pixel quantification in both the 561 nm and 635 nm channels. To quantify total protein in each image field, channels were split and the integrated signal density of each channel was quantified using ImageJ software. Human brain tissue sections immunostained for RIPK1, RIPK3, MLKL, and pMLKL were analyzed to measure absolute protein levels, as well as co-localization between RIPK1 and RIPK3, RIPK3 and MLKL, and RIPK1 and MLKL. […]

[2] = target: B1; test: as above
Procedure: as §1, §2

| binding result [1] | binding result [2] | Binder |
| --- | --- | --- |
| binds | – | B1 |
| – | binds | B2 |

Source: patent US20180094248A1 (ARIZONA BOARD OF REGENTS ON BEHALF OF ARIZONA STATE …, published 2018)
